Paper PMC7319586

Columns and labels:
Rv1044 = biological target: T1, Rv1044 (Mycobacterium tuberculosis (H37Rv), UniProt P96357 1-207); assay: EMSA; conditions: protein: recombinant; tags: His6-SUMO removed by SENP; untagged; chain copies: 2; label: 5' 6-FAM on strand 2; blunt
T1 sequence: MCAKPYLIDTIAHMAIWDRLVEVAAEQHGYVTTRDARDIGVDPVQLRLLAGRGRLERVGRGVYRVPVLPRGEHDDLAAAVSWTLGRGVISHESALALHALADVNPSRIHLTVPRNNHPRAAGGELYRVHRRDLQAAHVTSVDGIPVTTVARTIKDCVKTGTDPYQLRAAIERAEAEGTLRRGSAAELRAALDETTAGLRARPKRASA

Rv2827c [1] = biological target: T2, Rv2827c (Mycobacterium tuberculosis (H37Rv), UniProt P71625 1-295); assay: EMSA; conditions: protein: recombinant; tags: His6-SUMO removed by SENP; untagged; label: 5' 6-FAM on strand 2; blunt
T2 sequence: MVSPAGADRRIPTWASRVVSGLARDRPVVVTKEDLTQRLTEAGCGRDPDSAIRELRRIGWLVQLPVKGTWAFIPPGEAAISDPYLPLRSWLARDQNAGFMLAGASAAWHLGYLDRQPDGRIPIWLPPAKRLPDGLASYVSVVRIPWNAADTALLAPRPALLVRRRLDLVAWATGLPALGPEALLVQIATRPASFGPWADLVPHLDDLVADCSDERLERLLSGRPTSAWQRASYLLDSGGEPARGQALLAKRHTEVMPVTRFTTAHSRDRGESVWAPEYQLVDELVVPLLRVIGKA

Rv2827c [2] = biological target: T2, Rv2827c; assay: EMSA; weakly negative co-operativity; conditions: protein: recombinant; tags: His6-SUMO removed by SENP; untagged; label: 5' 6-FAM on strand 2; blunt
Rv2827c [3] = biological target: T2, Rv2827c; assay: EMSA; two binding events; not co-operative; conditions: protein: recombinant; tags: His6-SUMO removed by SENP; untagged; label: 5' 6-FAM on strand 2; blunt

B1: Prv1044 -1 to -71 WT (TRB1086) (dsDNA)
DNA 1: AACTAGGCGCGCCTAGCCTGGACGAGTCCCCGGGCCGACATTCGCCCGAGGCCTTGGCCTCCATCACCTAAAAGCTTTTGTCAGTGCGCA
DNA 2: TGCGCACTGACAAAAGCTTTTAGGTGATGGAGGCCAAGGCCTCGGGCGAATGTCGGCCCGGGGACTCGTCCAGGCTAGGCGCGCCTAGTT
Question: Does B1 bind (Rv1044)?
Answer: no binding

B2: PabiEi -1 to -71 WT (IR1-IR2, TRB1061) (dsDNA)
DNA 1: AAAAGAAAATGTTGCTTTTATACCACAAATATTGTAAAATTGTAGTGTAAAAGCAACAAGTGGGGGGCCGTAAGCTTTTGTCAGTGCGCA
DNA 2: TGCGCACTGACAAAAGCTTACGGCCCCCCACTTGTTGCTTTTACACTACAATTTTACAATATTTGTGGTATAAAAGCAACATTTTCTTTT
Question: Does B2 bind (Rv2827c [1])?
Answer: no binding

B3: Prv1044 -61 to -131 WT (TRB1102) (dsDNA)
DNA 1: GTATCTGCGACAAGGGCAGCGTCGATGCCTCGACATGCAGAGTCGGTGTTCGCTTCACGCGAACTAGGCGCAAGCTTTTGTCAGTGCGCA
DNA 2: TGCGCACTGACAAAAGCTTGCGCCTAGTTCGCGTGAAGCGAACACCGACTCTGCATGTCGAGGCATCGACGCTGCCCTTGTCGCAGATAC
Question: Does B3 bind (Rv1044)?
Answer: no binding

B4: Prv2827c -61 to -131 WT (IR1-IR2, TRB1106) (dsDNA)
DNA 1: CAGGGCACTTGAGTTTGGAACGGGTTTCGTACTGTCACTGACCGAAGCCCGTTCCTAAATCAAGTGATTTCAAGCTTTTGTCAGTGCGCA
DNA 2: TGCGCACTGACAAAAGCTTGAAATCACTTGATTTAGGAACGGGCTTCGGTCAGTGACAGTACGAAACCCGTTCCAAACTCAAGTGCCCTG
Question: Does B4 bind (Rv2827c [2])?
Answer: binds

Question: Does B4 bind (Rv1044)?
Answer: no binding

B5: Prv2827c -1 to -71 WT (IR3-IR4, TRB1104) (dsDNA)
DNA 1: CAAGTGATTTCTTGAGTTTGAACATTGTTGCGTACAGATATAGTATAGTTTCCGGTGTGAATTCAAGTTCGAAGCTTTTGTCAGTGCGCA
DNA 2: TGCGCACTGACAAAAGCTTCGAACTTGAATTCACACCGGAAACTATACTATATCTGTACGCAACAATGTTCAAACTCAAGAAATCACTTG
Question: Does B5 bind (Rv2827c [3])?
Answer: binds

Question: Does B5 bind (Rv1044)?
Answer: no binding
